This series concerns the target Glucokinase (Homo sapiens). The series is described as follows: Induction of human pancreatic glucokinase activity assessed as maximal reaction rate at 5 mM glucose concentration.

B1: Hexokinase-4 (Homo sapiens), P35557 (protein)
chain: MLDDRARMEAAKKEKVEQILAEFQLQEEDLKKVMRRMQKEMDRGLRLETHEEASVKMLPTYVRSTPEGSEVGDFLSLDLGGTNFRVMLVKVGEGEEGQWSVKTKHQMYSIPEDAMTGTAEMLFDYISECISDFLDKHQMKHKKLPLGFTFSFPVRHEDIDKGILLNWTKGFKASGAEGNNVVGLLRDAIKRRGDFEMDVVAMVNDTVATMISCYYEDHQCEVGMIVGTGCNACYMEEMQNVELVEGDEGRMCVNTEWGAFGDSGELDEFLLEYDRLVDESSANPGQQLYEKLIGGKYMGELVRLVLLRLVDENLLFHGEASEQLRTRGAFETRFVSQVESDTGDRKQIYNILSTLGLRPSTTDCDIVRRACESVSTRAAHMCSAGLAGVINRMRESRSEDVMRITVGVDGSVYKLHPSFKERFHASVRRLTPSCEITFIESEEGSGRGAALVSAVACKKACMLGQ
As for B1, the Vmax worked out at 130%.

The record behind these values is ChEMBL document CHEMBL2311350, “Discovery of a novel phenylethyl benzamide glucokinase activator for the treatment of type 2 diabetes mellitus” (Bioorg Med Chem Lett, 2013).
